In paper PMC7057269 (Journal of Molecular Biology, 2020):
Changes are numbered by the printed parent chain. * marks the point of attachment. Biotin = O=C1N[C@H]2[C@H](CS[C@H]2CCCCC(=O)*)N1; linker = not defined here

Key:
[1] = system: Fab397; assay: Isothermal titration calorimetry (ITC), NANP repeat peptides to Fab397; type: binding, human; details: for TΔS / ΔH / ΔS / No. of sites (N-value) / Kd: ITC, arithmetic mean ± SD, n = 4; for TΔS / ΔH / ΔS: Fab397, 25 °C; for No. of sites (N-value) / Kd: peptide in syringe, 8.9 μM Fab397 in cell, DPBS, 25 °C, single-site model
Description: Titrations were performed on a MicroCal Auto-iTC200 (GE Healthcare, Chicago, IL). Prior to the experiments, wild-type Fab397 was extensively dialyzed against Dulbecco's PBS (Thermo Fisher, Waltham, MA). […] The Fab and peptide concentrations were determined by UV absorbance at 280 nm and 205 nm. Molar extinction coefficients for the peptides at 205 nm were estimated using a previously published method. The titrations were all performed with peptides in the syringe and antibodies in the cell and consisted of 16 injections of 2.45 μL peptide at a rate of 0.5 μl/s […], with injection duration of 4.9 s, injection interval of 180 s, and reference power of 5 μCal. Experiments were conducted in quadruplet (N = 4) at 25 °C. Fitting of the integrated titration peaks was performed with Origin 7.0 software using a single-site binding model. The first data point was excluded from the fit as commonly done.
Data for sporozoite ELISA assay (N = 2) were fitted and plotted using GraphPad Prism, version 7.0. For mouse liver burden assay (N = 5 mice), data were compared for significance using a Mann–Whitney U test with p < 0.05 indicated a statistically significant difference. […] All statistical parameters and graphs for the mouse liver burden assay were calculated and plotted using R with the Hmisc and ggplot2 packages. Each ITC experiment was performed with four replicates (N = 4), and the data were reported as the arithmetic mean ± SD.

[2] = biological target: Fab317; parameters: method as in PMID 29138320; details: Fab317 with NPNA3; cited from earlier work
[3] = biological target: T1, biotinylated NPNA3 peptide (Biotin-linker-NPNANPNANPNA-NH2) (Plasmodium falciparum, synthetic CSP …, reading uncertain); assay: BLI; details: both partners purified
T1 construct: not shown: biotin, N-terminal, kept
T1 chain: {Biotin-linker}-NPNANPNANPNA-NH2

[4] = biological target: T2, NPNA4 peptide (Ac-NPNANPNANPNANPNA-NH2) (Plasmodium falciparum, synthetic CSP …); assay: ITC; details: both partners purified
T2 construct: also called (NANP)4
T2 chain: Ac-NPNANPNANPNANPNA-NH2

[5] = biological target: T3, NPNA8 peptide (Ac-NPNANPNANPNANPNANPNANPNANPNANPNA-NH2) (Plasmodium falciparum, synthetic CSP …); assay: ITC; details: both partners purified
T3 construct: also called (NANP)8
T3 chain: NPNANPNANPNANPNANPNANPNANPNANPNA

[6] = biological target: T3, NPNA8 peptide …; assay: negative-stain electron microscopy; details: both partners purified

Q: With `CC(=O)N[C@@H](CC(N)=O)C(=O)N1CCC[C@H]1C(=O)N[C@@H](CC(N)=O)C(=O)N[C@@H](C)C(=O)N[C@@H](CC(N)=O)C(=O)N1CCC[C@H]1C(=O)N[C@@H](CC(N)=O)C(=O)N[C@@H](C)C(N)=O` [NPNA2] as the molecule, how does the TΔS [1] read?
A: The TΔS was -5.859 ± 0.593 kcal/mol.

Q: And the ΔH [1]?
A: Its ΔH is -13.303 ± 0.556 kcal/mol.

Q: And the ΔS [1]?
A: The ΔS was −19.7 ± 2.0 cal^−1·mol^−1·K^−1.

Q: What about the “No. of sites (N-value)” value [1] of the same molecule?
A: Its value is 1.25 ± 0.02.

Q: Which TΔS [1] does the source give for `CC(=O)N[C@@H](CC(N)=O)C(=O)N1CCC[C@H]1C(=O)N[C@@H](CC(N)=O)C(=O)N[C@@H](C)C(=O)N[C@@H](CC(N)=O)C(=O)N1CCC[C@H]1C(=O)N[C@@H](CC(N)=O)C(=O)N[C@@H](C)C(=O)N[C@@H](CC(N)=O)C(=O)N1CCC[C@H]1C(=O)N[C@@H](CC(N)=O)C(=O)N[C@@H](C)C(=O)N[C@@H](CC(N)=O)C(=O)N1CCC[C@H]1C(=O)N[C@@H](CC(N)=O)C(=O)N[C@@H](C)C(N)=O` [NPNA4] here?
A: Its TΔS is -9.884 ± 0.147 kcal/mol.

Q: What about the ΔH [1] of the same molecule?
A: The ΔH was -19.915 ± 0.102 kcal/mol.

Q: And the ΔS [1]?
A: The ΔS was −33.2 ± 0.5 cal^−1·mol^−1·K^−1.

Q: What about the Kd [1] of the same molecule?
A: The Kd was 44 ± 3 nM.

Q: What about the “No. of sites (N-value)” value [1] of the same molecule?
A: Its value is 1.14 ± 0.01.

Q: With `CC(=O)N[C@@H](CC(N)=O)C(=O)N1CCC[C@H]1C(=O)N[C@@H](CC(N)=O)C(=O)N[C@@H](C)C(=O)N[C@@H](CC(N)=O)C(=O)N1CCC[C@H]1C(=O)N[C@@H](CC(N)=O)C(=O)N[C@@H](C)C(=O)N[C@@H](CC(N)=O)C(=O)N1CCC[C@H]1C(=O)N[C@@H](CC(N)=O)C(=O)N[C@@H](C)C(=O)N[C@@H](CC(N)=O)C(=O)N1CCC[C@H]1C(=O)N[C@@H](CC(N)=O)C(=O)N[C@@H](C)C(=O)N[C@@H](CC(N)=O)C(=O)N1CCC[C@H]1C(=O)N[C@@H](CC(N)=O)C(=O)N[C@@H](C)C(=O)N[C@@H](CC(N)=O)C(=O)N1CCC[C@H]1C(=O)N[C@@H](CC(N)=O)C(=O)N[C@@H](C)C(=O)N[C@@H](CC(N)=O)C(=O)N1CCC[C@H]1C(=O)N[C@@H](CC(N)=O)C(=O)N[C@@H](C)C(=O)N[C@@H](CC(N)=O)C(=O)N1CCC[C@H]1C(=O)N[C@@H](CC(N)=O)C(=O)N[C@@H](C)C(N)=O` [NPNA8] as the molecule, how does the “binding stoichiometry inferred from N-value” ([1]; ITC with Fab397, peptide:Fab ratio, or number of Fabs per peptide as worded) read?
A: The value was “two Fabs bind per peptide”.

Q: What about the TΔS [1] of the same molecule?
A: The TΔS was -30.024 ± 0.179 kcal/mol.

Q: What about the ΔH [1] of the same molecule?
A: Its ΔH is -40.09 ± 0.143 kcal/mol.

Q: And the ΔS [1]?
A: The ΔS was −100.7 ± 0.6 cal^−1·mol^−1·K^−1.

Q: And the Kd [1]?
A: Its Kd is 41 ± 3 nM.

Q: What about the “No. of sites (N-value)” value [1] of the same molecule?
A: Its value is 0.56 ± 0.01.

Q: With “NPNA3: NPNA3 peptide, bound by Fab317 in ref 29 ({Biotin-linker}-NPNANPNANPNA-NH2; reading uncertain; also: linker not given here)” as the molecule, how does the Kd [2] read?
A: The Kd was 78 ± 16 nM.

B1: Fab311 wild type (Fab, V domains shown)
VH: QVQLVESGGGVVPPGRSLRLSCATSGFTFSNYGMHWVRQAPGKGLEWVAIIWYDGSRNFYAASVEGRFTISRDNSKNTLYLQMNSLRVEDTAVYYCARAAYYDTSGYGDYWGQGTLVTVSS
VL: QSVLTQPPSVSGAPGQTVTISCTGGSSNIGAGYDVHWYQQLPGTAPKLLIYGNINRPSGVPDRFSGSKSGTSASLAITGLQAEDEADYYCQSYDRRLSGSWVFGGGTKLTVL
Q: Does B1 bind [3]?
A: Result: binds

B2: Fab311 HW52A (Fab, V domains shown)
VH: B1 VH with W52A
VL: B1 VL
Q: Which other [3] does the source give for B2 here?
A: The other was 26%.

B3: Fab317 wild type (Fab, V domains shown)
VH: QMQLVESGGGVVQPGRSLRLSCTASGFTFSTYAMHWVRQSPGQGLQWVAVISYHSTNKYYEDSVRGRFTISRDNSKNTLYLQMNSLRAEDTAVYYCARDGYSSSFFDFWGQGTLVTVSS
VL: DIQMTQSPSTLSASVGDRVAITCRASQSISRWLAWYQQQPGKAPKLLMSGASVLESGVPSRFSGSGSGTEFTLTISSLQPDDFATYYCQHYNSYFVTFGQGTKVEIK
Q: For B3, which other [3] is on record?
A: The other was 100%.

B4: Fab317 LW32A (Fab, V domains shown)
VH: B3 VH
VL: B3 VL with W32A
Q: For B4, which other [3] is on record?
A: The other was 20%.

B5: Fab397 wild type (Fab, V domains shown)
VH: EVQLVKSGGGLVKPGGSLRLSCAVSGFTFTDAWMSWVRQAPGKGPEWVGRIKSNPDGGTTDYAAPVRGRFTISRDDSKNTLYLQMNNLKTEDTAVYYCITDRDFYRSGGSWGQGTLVTV
VL: DIVMTQSPLSLPVTPGEPASISCRSRQSLLYSNGDNYLDWYLQKPGQSPQLLIYLGSNRAPGVPDRFSGSGSGTDFTLKISRVEAEDVGVYYCMQTLQTPHTFGQGTKLEIK
Q: Does B5 bind [3]?
A: Result: binds

Q: And the Kd [4]?
A: The Kd was 44 nM.

Q: What about the dH [4] of the same molecule?
A: The dH was -19.9 kcal/mol.

Q: What about the “stoichiometry N” value [4] of the same molecule?
A: Its value is 1.14.

Q: What about the Kd [5] of the same molecule?
A: Its Kd is 41 nM.

Q: What about the dH [5] of the same molecule?
A: The dH was -40.1 kcal/mol.

Q: What about the “stoichiometry N” value [5] of the same molecule?
A: The value was 0.56.

Q: And the “stoichiometry N” value [6]?
A: Its value is 2.

B6: Fab397 HD95A (Fab, V domains shown)
VH: B5 VH with D101A
VL: B5 VL
Q: Does B6 bind [3]?
A: Result: no binding (tested: 2000 nM)

B7: Fab397 LD30A (Fab, V domains shown)
VH: B5 VH
VL: B5 VL with D35A
Q: Which other [3] does the source give for B7 here?
A: Its other is 66%.

B8: Fab397 HR96A (Fab, V domains shown)
VH: B5 VH with R102A
VL: B5 VL
Q: Which other [3] does the source give for B8 here?
A: The other was 77%.

B9: Fab397 HW33A (Fab, V domains shown)
VH: B5 VH with W33A
VL: B5 VL
Q: Does B9 bind [3]?
A: Result: no binding (tested: 2000 nM)

B10: Fab397 LY32A (Fab, V domains shown)
VH: B5 VH
VL: B5 VL with Y37A
Q: Does B10 bind [3]?
A: Result: no binding (tested: 2000 nM)
